Data set [1] deals with HeLa Kyoto. The data set can be described thus: solubility in G1/S (NP-40 vs SDS abundance) (log2 ratio); higher = more soluble. To be noted: cell cycle stage: G1/S.
Data set [2] deals with HeLa Kyoto. Nature of the data set: melting temperature (median over replicates), in situ; higher = more thermally stable.
The test system of data set [3] is HeLa Kyoto. The data set can be described thus: solubility change mitosis vs G1/S (difference of NP-40 vs SDS log2 ratios) (log2 ratio difference); higher = more soluble in mitosis.
Data set [4] has as its system HeLa Kyoto. The data set can be described thus: thermal stability score vs G1/S (z-score of summed log2 fold changes over temperatures); higher = more thermally stable than in G1/S.
Setting [5] is: cell cycle stage: early G1 (4.5 h after nocodazole release).
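For melting temperature (median over replicates), in situ in this document: HeLa Kyoto cells synchronized by double thymidine or nocodazole block, proteins quantified by TMT10plex mass spectrometry, three independent biological replicates.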
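For solubility change mitosis vs G1/S (difference of NP-40 vs SDS log2 ratios) in this document: synchronized HeLa Kyoto cells (double thymidine block for G1/S, nocodazole release for mitosis), protein amounts in NP-40 versus SDS lysates quantified by mass spectrometry, three biological replicates.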
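For solubility in G1/S (NP-40 vs SDS abundance) in this document: HeLa Kyoto cells arrested at G1/S by double thymidine block, proteins quantified by TMT10plex mass spectrometry in mild NP-40 versus SDS extracts, three biological replicates.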
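For thermal stability score vs G1/S (z-score of summed log2 fold changes over temperatures) in this document: synchronized HeLa Kyoto cells, proteins quantified by TMT10plex mass spectrometry, three biological replicates, mitosis taken 0.5 h after nocodazole release, G1/S directly after double thymidine block.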

Turning to “MSFLQDPSFFTMGMWSIGAGALGAAALALLLANTDVFLSKPQKAALEYLEDIDLKTLEKEPRTFKAKELWEKNGAVIMAVRRPGCFLCREEAADLSSLKSMLDQLGVPLYAVVKEHIRTEVKDFQPYFKGEIFLDEKKKFYGPQRRKMMFMGFIRLGVWYNFFRAWNGGFSGNLEGEGFILGGVFVVGSGKQGILLEHREKEFGDKVNLLSVLEAAKMIKPQTLASEKK [FAM213A]”, the “solubility in G1/S (log2)” value with HeLa Kyoto [1] is -0.0704. Further, the figures for the melting temperature in the data set on HeLa Kyoto [2] (cell cycle stage: G1/S) and with HeLa Kyoto [2] (cell cycle stage: mitosis) were 56.6 °C and 55.5 °C, respectively. In addition, in the data set on HeLa Kyoto [3], the “solubility change mitosis (log2)” value was -0.0729. Moreover, the thermal stability score is -0.538 in the data set with HeLa Kyoto [4] (setting [5]) and -0.108 in the data set on HeLa Kyoto [4] (cell cycle stage: mitosis).
Turning to “MFRAAAPGQLRRAASLLRFQSTLVIAEHANDSLAPITLNTITAATRLGGEVSCLVAGTKCDKVAQDLCKVAGIAKVLVAQHDVYKGLLPEELTPLILATQKQFNYTHICAGASAFGKNLLPRVAAKLEVAPISDIIAIKSPDTFVRTIYAGNALCTVKCDEKVKVFSVRGTSFDAAATSGGSASSEKASSTSPVEISEWLDQKLTKSDRPELTGAKVVVSGGRGLKSGENFKLLYDLADQLHAAVGASRAAVDAGFVPNDMQVGQTGKIVAPELYIAVGISGAIQHLAGMKDSKTIVAINKDPEAPIFQVADYGIVADLFKVVPEMTEILKKK [ETFA]”, the “solubility in G1/S (log2)” value in the data set with HeLa Kyoto [1] was 0.455. Also, the melting temperature is 54.1 °C in the data set on HeLa Kyoto [2] (cell cycle stage: G1/S) and 53.6 °C in the data set on HeLa Kyoto [2] (cell cycle stage: mitosis). Also, in the data set on HeLa Kyoto [3], the “solubility change mitosis (log2)” value was -0.02. In addition, the thermal stability score with HeLa Kyoto [4] (setting [5]) is -3.45; in the data set on HeLa Kyoto [4] (cell cycle stage: mitosis), -1.76.
For “MDSRVSELFGGCCRPGGGPAVGGTLKARGAGSSSGCGGPKGKKKNGRNRGGKANNPPYLPPEAEDGNIEYKLKLVNPSQYRFEHLVTQMKWRLQEGRGEAVYQIGVEDNGLLVGLAEEEMRASLKTLHRMAEKVGADITVLREREVDYDSDMPRKITEVLVRKVPDNQQFLDLRVAVLGNVDSGKSTLLGVLTQGELDNGRGRARLNLFRHLHEIQSGRTSSISFEILGFNSKGEVVNYSDSRTAEEICESSSKMITFIDLAGHHKYLHTTIFGLTSYCPDCALLLVSANTGIAGTTREHLGLALALKVPFFIVVSKIDLCAKTTVERTVRQLERVLKQPGCHKVPMLVTSEDDAVTAAQQFAQSPNVTPIFTLSSVSGESLDLLKVFLNILPPLTNSKEQEELMQQLTEFQVDEIYTVPEVGTVVGGTLSSGICREGDQLVVGPTDDGCFLELRVCSIQRNRSACRVLRAGQAATLALGDFDRALLRKGMVMVSPEMNPTICSVFEAEIVLLFHATTFRRGFQVTVHVGNVRQTAVVEKIHAKDKLRTGEKAVVRFRFLKHPEYLKVGAKLLFREGVTKGIGHVTDVQAITAGEAQANMGF [GTPBP2]”, the “solubility in G1/S (log2)” value in the data set with HeLa Kyoto [1] is -0.711. Also, the melting temperature is 49.9 °C in the data set with HeLa Kyoto [2] (cell cycle stage: G1/S) and 50.1 °C in the data set with HeLa Kyoto [2] (cell cycle stage: mitosis). In addition, in the data set with HeLa Kyoto [3], the “solubility change mitosis (log2)” value came out at 0.127. In addition, the thermal stability score in the data set on HeLa Kyoto [4] (setting [5]) was found to be 0.507; in the data set on HeLa Kyoto [4] (cell cycle stage: mitosis), 0.439.
In the case of “MLVSGRRRLLTVLLQAQKWPFQPSRDMRLVQFRAPHLVGPHLGLETGNGGGVINLNAFDPTLPKTMTQFLEQGEATLSVARRALAAQLPVLPRSEVTFLAPVTRPDKVVCVGMNYVDHCKEQNVPVPKEPIIFSKFASSIVGPYDEVVLPPQSQEVDWEVELAVVIGKKGKHIKATDAMAHVAGFTVAHDVSARDWQMRRNGKQWLLGKTFDTFCPLGPALVTKDSVADPHNLKICCRVNGEVVQSGNTNQMVFKTEDLIAWVSQFVTFYPGDVILTGTPPGVGVFRKPPVFLKKGDEVQCEIEELGVIINKVV [FAHD2A]”, the “solubility in G1/S (log2)” value in the data set on HeLa Kyoto [1] was determined as 0.253. In addition, the melting temperature was determined as 55.7 °C with HeLa Kyoto [2] (cell cycle stage: G1/S) and 56.4 °C in the data set with HeLa Kyoto [2] (cell cycle stage: mitosis). For the same substance, the “solubility change mitosis (log2)” value with HeLa Kyoto [3] was -0.192. Also, the thermal stability score in the data set on HeLa Kyoto [4] (setting [5]) is -1.17; with HeLa Kyoto [4] (cell cycle stage: mitosis) it was -2.54.
Regarding SDE2, the “solubility in G1/S (log2)” value in the data set with HeLa Kyoto [1] turned out to be 0.563. For the same substance, the melting temperature in the data set on HeLa Kyoto [2] (cell cycle stage: G1/S) and with HeLa Kyoto [2] (cell cycle stage: mitosis) was 49.5 °C throughout. The “solubility change mitosis (log2)” value with HeLa Kyoto [3] is 0.0378. Besides, the thermal stability score in the data set on HeLa Kyoto [4] (setting [5]) stood at 2.03; with HeLa Kyoto [4] (cell cycle stage: mitosis) it was 1.98.
For the substance “MFLVGLTGGIASGKSSVIQVFQQLGCAVIDVDVMARHVVQPGYPAHRRIVEVFGTEVLLENGDINRKVLGDLIFNQPDRRQLLNAITHPEIRKEMMKETFKYFLRGYRYVILDIPLLFETKKLLKYMKHTVVVYCDRDTQLARLMRRNSLNRKDAEARINAQLPLTDKARMARHVLDNSGEWSVTKRQVILLHTELERSLEYLPLRFGVLTGLAAIASLLYLLTHYLLPYA [DCAKD]”, the “solubility in G1/S (log2)” value in the data set with HeLa Kyoto [1] is -0.0828. Also, the figures for the melting temperature in the data set with HeLa Kyoto [2] (cell cycle stage: G1/S) and in the data set on HeLa Kyoto [2] (cell cycle stage: mitosis) were 51.7 °C and 50.9 °C, respectively. In addition, the “solubility change mitosis (log2)” value in the data set on HeLa Kyoto [3] is -0.182. Besides, the thermal stability score in the data set with HeLa Kyoto [4] (setting [5]) was -0.154; in the data set with HeLa Kyoto [4] (cell cycle stage: mitosis), 0.0944.
In the case of “MAGAEGAAGRQSELEPVVSLVDVLEEDEELENEACAVLGGSDSEKCSYSQGSVKRQALYACSTCTPEGEEPAGICLACSYECHGSHKLFELYTKRNFRCDCGNSKFKNLECKLLPDKAKVNSGNKYNDNFFGLYCICKRPYPDPEDEIPDEMIQCVVCEDWFHGRHLGAIPPESGDFQEMVCQACMKRCSFLWAYAAQLAVTKISTEDDGLVRNIDGIGDQEVIKPENGEHQDSTLKEDVPEQGKDDVREVKVEQNSEPCAGSSSESDLQTVFKNESLNAESKSGCKLQELKAKQLIKKDTATYWPLNWRSKLCTCQDCMKMYGDLDVLFLTDEYDTVLAYENKGKIAQATDRSDPLMDTLSSMNRVQQVELICEYNDLKTELKDYLKRFADEGTVVKREDIQQFFEEFQSKKRRRVDGMQYYCS [UBR7]”, the “solubility in G1/S (log2)” value in the data set on HeLa Kyoto [1] amounted to 0.163. Moreover, the melting temperature with HeLa Kyoto [2] (cell cycle stage: G1/S) turned out to be 49.9 °C; in the data set on HeLa Kyoto [2] (cell cycle stage: mitosis) it was 50.7 °C. In the data set on HeLa Kyoto [3], the “solubility change mitosis (log2)” value is -0.0607. Besides, the thermal stability score with HeLa Kyoto [4] (setting [5]) is -0.155; in the data set with HeLa Kyoto [4] (cell cycle stage: mitosis), 0.512.
In the case of “MSFICGLQSAARNHVFFRFNSLSNWRKCNTLASTSRGCHQVQVNHIVNKYQGLGVNQCDRWSFLPGNFHFYSTFNNKRTGGLSSTKSKEIWRITSKCTVWNDAFSRQLLIKEVTAVPSLSVLHPLSPASIRAIRNFHTSPRFQAAPVPLLLMILKPVQKLFAIIVGRGIRKWWQALPPNKKEVVKENIRKNKWKLFLGLSSFGLLFVVFYFTHLEVSPITGRSKLLLLGKEQFRLLSELEYEAWMEEFKNDMLTEKDARYLAVKEVLCHLIECNKDVPGISQINWVIHVVDSPIINAFVLPNGQMFVFTGFLNSVTDIHQLSFLLGHEIAHAVLGHAAEKAGMVHLLDFLGMIFLTMIWAICPRDSLALLCQWIQSKLQEYMFNRPYSRKLEAEADKIGLLLAAKACADIRASSVFWQQMEFVDSLHGQPKMPEWLSTHPSHGNRVEYLDRLIPQALKIREMCNCPPLSNPDPRLLFKLSTKHFLEESEKEDLNITKKQKMDTLPIQKQEQIPLTYIVEKRTGS [OMA1]”, in the data set on HeLa Kyoto [1], the “solubility in G1/S (log2)” value was -0.436. The melting temperature came to 54.1 °C with HeLa Kyoto [2] (cell cycle stage: G1/S) and 54.7 °C in the data set on HeLa Kyoto [2] (cell cycle stage: mitosis). For the same substance, the “solubility change mitosis (log2)” value with HeLa Kyoto [3] is -0.0922. Further, the thermal stability score with HeLa Kyoto [4] (setting [5]) was -1.79; in the data set with HeLa Kyoto [4] (cell cycle stage: mitosis), -1.54.

For the origin of these results see the supplement of paper PMC5998384.
